This is an account of results in patent publication US6159736.

The test system of the data set is Tn5 transposase hyperactive mutant EK54/MA56/LP372 (EK45/MA56/LP372 [sic] in example) E54K,M56A,L372P (Escherichia coli (transposon Tn5)?). The data set is described as follows: cell_activity. Conditions: 1 µl electroporated into E. coli MG1655, KanR colonies.

The substance “linearized plasmid with mosaic-end kanamycin transposon and donor backbone” displayed an activity (with Mg2+) of 6900 CFU.

In the case of “released transposable element (PvuII cut) with kanamycin resistance cassette flanked by inverted mosaic ends”, under “no Mg2+, synaptic complex formed in vitro, with Mg2+ 3.9e3, 10 µl dialyzed without Mg2+ 5.5e5”, the activity came to 53000 CFU.

For the setting “with Mg2+, none without transposase”, “supercoiled plasmid with mosaic-end kanamycin transposon and donor backbone” returned an activity of 1600 CFU.
